For series [1], the system named is LI integrase ΔZD (Listeria innocua prophage (CLIP 11262; cloned from ATCC BAA-680D genomic DNA)). Description: EMSA. The conditions noted are these: EMSA: 20 mM Tris-HCl pH 7.4, 150 mM KCl, 2 mM DTT, 25 ug/ml BSA, 25 ug/ml salmon sperm DNA, 5% glycerol, ~1 nM DNA, 30 min at 30 C; 6% PAGE Tris-glycine pH ….
Series [2] concerns LI integrase WT (Listeria innocua prophage (CLIP 11262; cloned from ATCC BAA-680D genomic DNA)). Description: EMSA. The conditions noted are these: EMSA: 20 mM Tris-HCl pH 7.4, 150 mM KCl, 2 mM DTT, 25 ug/ml BSA, 25 ug/ml salmon sperm DNA, 5% glycerol, ~1 nM DNA, 30 min at 30 C; 6% PAGE Tris-glycine pH ….
A further series addresses T1, LI integrase CTD (Listeria innocua prophage (CLIP 11262; …, UniProt Q928V6 133-452).
T1 sequence: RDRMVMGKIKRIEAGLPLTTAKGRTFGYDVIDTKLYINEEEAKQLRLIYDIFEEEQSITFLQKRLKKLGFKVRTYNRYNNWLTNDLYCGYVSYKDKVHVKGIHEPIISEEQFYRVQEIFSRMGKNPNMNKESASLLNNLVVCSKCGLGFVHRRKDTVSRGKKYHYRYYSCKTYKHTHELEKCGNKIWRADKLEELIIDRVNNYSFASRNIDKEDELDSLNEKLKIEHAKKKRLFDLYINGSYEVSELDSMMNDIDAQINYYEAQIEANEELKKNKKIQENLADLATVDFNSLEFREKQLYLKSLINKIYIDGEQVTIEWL
Description: crystal structure (3.2 A); Zn2+ bound; 13 mM CaCl2 in drop; EMSA: 20 mM Tris-HCl pH 7.4, 150 mM KCl, 2 mM DTT, 25 ug/ml BSA, 25 ug/ml salmon sperm DNA, 5% glycerol, ~1 nM DNA, 30 min at 30 C; 6% PAGE Tris-glycine pH 8.3. The conditions noted are these: protein: recombinant; tags: C-terminal His6 (LEH6); 5' overhangs 1 nt (G top, C bottom), 25 bp duplex.

For the molecule LI attB 119-bp probe, in series [1], the binding signal (fold weaker than WT) stood at 25. This molecule also gave a Kd in series [2] of 20 nM.

With LI attP 119-bp probe, in series [1], the binding signal (fold weaker than WT) is 25. The molecule also registered a Kd in series [2] of 20 nM.

B1: A118 attP P-arm half-site (crystal) (dsDNA)
DNA 1: GTTTAGTTCCTCGTTTTCTCTCGTTG
DNA 2: CCAACGAGAGAAAACGAGGAACTAAA
On to B1, for which the binding result with LI integrase CTD was “binds”.
